For one substance, p27 half-life, pulse chase analysis in NIH-3T3 cells results are on record in patent US20020123082A1.

In the assay the target is human p27, wild type (human) (UniProt P46527). The assay can be described thus: cell-based or functional assay.
human p27, wild type (human), sequence (P46527 whole entry): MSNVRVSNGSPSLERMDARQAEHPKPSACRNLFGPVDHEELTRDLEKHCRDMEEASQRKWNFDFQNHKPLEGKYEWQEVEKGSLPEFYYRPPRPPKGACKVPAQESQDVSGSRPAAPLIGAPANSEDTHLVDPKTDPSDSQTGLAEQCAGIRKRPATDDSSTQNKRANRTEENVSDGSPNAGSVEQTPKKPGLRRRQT

“(ΔF)Skp2, F-box deleted Skp2 mutant lacking residues 113-152 (from UniProt Q13309 1-112; Q13309 141-424)” had a p27 half-life, pulse chase analysis in NIH-3T3 cells of 3 h.
